Data reported in publication PMC7038949, “FRET-Based Aptasensor for the Selective and Sensitive Detection of Lysozyme”.

Molecular target: lysozyme (chicken (egg white), UniProt P00698 19-147)
Assay: single-molecule FRET (aptamer displacement); H1 helper strand 1 uM, 10 mM Mg2+; detection limit 30 nM, dynamic range to ~2 uM (not a Kd); 1x TAE-Mg: 40 mM Tris, 20 mM acetic acid, 1 mM EDTA, 10 mM Mg2+, pH 7.4; 1 uM H1 in imaging solution; temperature not stated
Conditions: protein: commercial; label: 3' Cy3 on Cy3 strand; 5' Cy5 on Cy5 strand; partially double-stranded multi-strand assembly; 15 nt of aptamer strand (6 extension + 9 aptamer) paired with B1; lysozyme displaces the aptamer strand

lysozyme, sequence (P00698 19-147): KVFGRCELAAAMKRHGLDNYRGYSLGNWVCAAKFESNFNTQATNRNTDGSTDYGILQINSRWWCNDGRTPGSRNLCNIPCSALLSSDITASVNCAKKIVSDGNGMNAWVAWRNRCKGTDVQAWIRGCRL

B1: lysozyme aptasensor (aptamer annealed to B1, Cy5, top and Cy3 strands) (mixed)
DNA 1: ACTGTCATCAGGGCTAAAGAGTGCAGAGTTACTTAG
DNA 2: AGCCCTGATGACAGTAATATAATTCTATA
DNA 3: TATAGAATTATATTATATTACGAGTAGTGAGTTCCA
DNA 4: ATCAGAAGCTCTC
DNA 5: TGGAACTCACTACTCGATTAGTGTATGACCTCTATATGAGAGCTTCTGAT
modifications: 5' biotin-TEG on Cy3 strand
binding result: binds
